According to paper PMC7217052, “Rapid Biophysical Characterization and NMR Spectroscopy Structural Analysis of Small Proteins from Bacteria and Archaea” (Chembiochem, 2020):

Molecular target: the molecule itself
Experiment: solution-state NMR structure; 5 mM protein, 50 mM sodium phosphate buffer pH 7.5, 100 mM NaCl, 298 K; best 20 structures shown as a symmetrical dimer

B1: SP-22 small protein from Haloferax volcanii (natural protein)
chain: MNKAHFEVFVDAADKYRWRLVHDNGNILADSGEGYASKQKAKQGIESVKRNAPDADVIEA
notes: source: heterologously expressed in E. coli, purified (purity above 95 %)
Question: How did the “stoichiometry N” value turn out when B1 was run?
Answer: 2
